{"source": "paper PMC3595323", "about": "(Proteins, 2013)", "proteins": {"B1": {"name": "Thermoplasma acidophilum nucleoside kinase Ta0880, crystallization construct (E112A, K113A, K115A) (enzyme, UniProt Q9HJT3 1-287, looked up)", "chain": "MRFLAYFGHLNIDVLISVDSIPREGSVNVKDLRPRFGGTAGNFAIVAQKFRIPFDLYSAVGMKTHREYLAMIESMGINTGHVEKFEDESGPICYIATDGKKQVSFMHQGAMAAWAPQLADEYEYVHFSTGPNYLDMAKSIRSKIIFDPSQEIHKYSKDELKKFHEISYMSIFNDHEYRVFREMTGLSSPKVTTIVTNGERGSSLFMDGKKYDFPAIPSSGDTVGAGDSFRAGLYLALYNRRSIEKGMIYGTIIAHHVIDDGIENFSLNMEDLERETENYRRMFTKRS", "modifications": "selenomethionine (expressed in selenomethionine-containing medium with suppression of normal methionine synthesis)"}}, "biological_target": "the molecule itself", "assay": "crystal structure", "data": [{"protein": "B1", "values": [{"measurement": "binding result", "result": "binds"}]}]}
